Test results published in patent US20190144541A1 (BEIJING DONGFANG BIOTECH, published 2019).

How the values were obtained:
PD-1 on PD1-CHO cells = molecular target: T1, PD-1 on PD1-CHO cells; experiment: cell ELISA on fixed PD1-CHO cells, anti-human Fc-HRP
T1 construct: also called cell-surface PD-1
Description: Firstly, the CHO cell line with stable PD-1 over-expression was made and named PD1-CHO. After coating 96-well plates with gelatin, PD1-CHO cells was digested by trypsin and then stopped. After centrifuging and suspending these cells, the cells were diluted to 2×10⁵ cells/mL, 100 μL per well in 96-well plates, totally 12 well×6 row, namely 2×10⁴ cells/well, and cultured at 5% CO₂, 37° C. overnight. The culture medium were discarded the next day, and the wells were washed one time with 350 μL precooling PBS. Freshly prepared 2% PFA was added to fix 5 minutes, and then PBS was used to wash two times.
The full-length anti-PD-1 antibody of double dilution was added into the cell plates, the diluent is PBS with 0.5% BSA. Sample concentration started from 100 μg/mL, diluting for 8 times, totally 12 gradients of dilution. After incubating for 30 minutes at room temperature, supernatant was discarded, and wells were washed three times with 350 μL pre-cooled PBS. The anti-human Fc-HRP Secondary antibodies diluted at 1:5000 were added, and incubated for 15 minutes at room temperature. After washing three times with 350 μL PBS, 100 μL TMB stain solution was added into each well, staining for 15 to 30 minutes at room temperature. After adding 50 μL2 mol/L H2504 per well to stop the staining, the optical density was read at 450 nm and 630 nm wavelength with the microplate reader.

PD-1-His [1] = molecular target: T2, PD-1-His (UniProt Q15116 25-167, limits assumed); experiment: ELISA on coated PD-1-His (60 ng/well), anti-human Fc-HRP
T2 construct: also called antigen PD-1-His; not shown: His tag
Description: After washing five times with 300 μl/well PBST, the wells were blocked for two hours with 1% BSA-PBS at 37° C. Different dilution of the antibodies DFPD1-9, DFPD1-10, DFPD1-11, DFPD1-12 and DFPD1-13 were added. The highest concentration of these five kinds of antibodies is 16 μg/mL, diluted for 4 times to 11 gradients, and the last well was used as the negative control which was added PBS diluent only. After incubating at 37° C. for one hour, the wells were washed five times with 300 μL/well of PBST, then adding the anti-human Fc-HRP secondary antibodies diluted at 1:40000 with 1% BSA-PBS, incubating at 37° C. for one hour. After staining with TMB stain solution kit, 100 μL/well, for 8 minutes at room temperature, the reaction was stopped with 50 µL of 2 mol/L H₂SO₄/well, and the optical density was determined at 450 nm and 630 nm wavelength.

[2] = molecular target: T3, PD-1 (analyte in the BIAcore X100 assay) (UniProt Q15116 25-167, limits assumed); experiment: SPR, BIAcore X100, antibody captured by anti-human IgG on CM5 chip, PD-1 as analyte
T3 construct: also called Programmed Cell Death 1
Description: The affinity of the antibodies were determined by ligand-capture method. Anti-human IgG was coupled to the surface of CM5 chip, and DFPD1-9, DFPD1-10, DFPD1-11, DFPD1-12 and DFPD1-13 were diluted respectively to ensure the capturing about 300 RU of the antibody by the anti-human IgG.

PD-1-His [3] = molecular target: T2, PD-1-His; experiment: competition ELISA: antibody premixed with 4 ug/mL PD1-His, added to coated PDL1-Fc, bound PD1-His detected with anti-His-HRP
Description: PDL1-Fc in pH9.6 carbonate buffer solution was used for coating plates at 4° C. for overnight. After washing five times with PBST, the wells were blocked for two hours with 1% BSA-PBS at 37° C. […] After incubating at 37° C. for one hour, the wells were washed five times with PBST, and then the mouse anti-His antibody HRP labeled with 1% BSA-PBS diluted were added. After incubating at 37° C. for one hour, the wells were stained with TMB stain solution kit, 100 μL/well, for 8 minutes at room temperature. The reaction was stopped with 50 µL of 10% H₂SO₄/well. The optical density was read at 450 nm and 630 nm wavelength. The result is shown in FIG. 16, DFPD1-9, DFPD1-10, DFPD1-11, DFPD1-12 and DFPD1-13 can inhibit the binding of PD-1 and PD-L1.

T3 sequence (Q15116 25-167 limits assumed): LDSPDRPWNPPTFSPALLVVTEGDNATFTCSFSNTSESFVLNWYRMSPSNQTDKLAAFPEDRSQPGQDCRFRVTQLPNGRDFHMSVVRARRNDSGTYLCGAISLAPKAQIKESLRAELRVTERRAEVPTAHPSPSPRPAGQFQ
T2 sequence (Q15116 25-167 limits assumed): as above
T1 sequence (chain, as listed by the source limits assumed): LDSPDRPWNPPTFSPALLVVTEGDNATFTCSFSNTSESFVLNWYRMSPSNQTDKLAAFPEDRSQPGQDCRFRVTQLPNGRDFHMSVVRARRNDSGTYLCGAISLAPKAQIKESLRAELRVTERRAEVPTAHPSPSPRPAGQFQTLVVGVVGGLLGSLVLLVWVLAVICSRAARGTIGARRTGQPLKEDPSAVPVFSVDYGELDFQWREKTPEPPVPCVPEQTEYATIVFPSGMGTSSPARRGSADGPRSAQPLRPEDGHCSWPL

B1: DFPD1-9 full-length anti-PD-1 monoclonal antibody (antibody, human IgG4 S228P, kappa, V domains shown)
VH: QVQLVESGGGVVQPGRSLRLDCKASGITFSNYGMHWVRQAPGKGLEWVAVIWYDSSRKYYADSVKGRFTISRDNSKNTLFLQMNSLRAEDTAVYYCATNNDYWGQGTLVTVSS
VL: DIQMTQSPSSLSASVGDRVTITCRASQSIHNYLDWYQQKPGKAPKLLIYNASTRATGVPSRFSGSGSGTDFTLTISSLQPEDFATYYCQQELHLPLTFGQGTKVEIKR
notes: Expressed in HEK293E cells and purified on protein A
- EC50 (read off the curve) (PD-1 on PD1-CHO cells): ~2 nM
- EC50 (read off the curve) (PD-1-His [1]): ~0.006 µg/mL
- Kd [2]: 6.43 nM
- koff [2]: 0.000105 s⁻¹
- kon [2]: 16300 M⁻¹ s⁻¹
- IC50 (read off the curve) (PD-1-His [3]): ~0.1 µg/mL

B2: DFPD1-10 full-length anti-PD-1 monoclonal antibody (antibody, human IgG4 S228P, kappa, V domains shown)
VH: QVQLVESGGGVVQPGRSLRLDCKASGITFSNYGMHWVRQAPGKGLEWVAVIWYDSSRKYYADSVKGRFTISRDNSKNTLFLQMNSLRAEDTAVYYCATNNDYWGQGTLVTVSS
VL: DIQMTQSPSSLSASVGDRVTITCRASQSVSNYLDWYQQKPGKAPKLLIYDASTRATGVPSRFSGSGSGTDFTLTISSLQPEDFATYYCQQNMQLPLTFGQGTKVEIKR
notes: as for B1
- EC50 (read off the curve) (PD-1 on PD1-CHO cells): ~0.9 nM
- EC50 (read off the curve) (PD-1-His [1]): ~0.007 µg/mL
- Kd [2]: 3.96 nM
- koff [2]: 0.00013 s⁻¹
- kon [2]: 32800 M⁻¹ s⁻¹
- IC50 (read off the curve) (PD-1-His [3]): ~0.1 µg/mL

B3: DFPD1-11 full-length anti-PD-1 monoclonal antibody (antibody, human IgG4 S228P, kappa, V domains shown)
VH: QVQLVESGGGVVQPGRSLRLDCKASGITFSNNGMHWVRQAPGKGLEWVAVIWYDSSRKYYADSVKGRFTISRDNSKNTLFLQMNSLRAEDTAVYYCATNNDYWGQGTLVTVSS
VL: DIQMTQSPSSLSASVGDRVTITCRASQSIHNYLDWYQQKPGKAPKLLIYNASTRATGVPSRFSGSGSGTDFTLTISSLQPEDFATYYCQQELHLPLTFGQGTKVEIKR
notes: as for B1
- EC50 (read off the curve) (PD-1 on PD1-CHO cells): ~4 nM
- EC50 (read off the curve) (PD-1-His [1]): ~0.006 µg/mL
- Kd [2]: 10.8 nM
- koff [2]: 0.000102 s⁻¹
- kon [2]: 9360 M⁻¹ s⁻¹
- IC50 (read off the curve) (PD-1-His [3]): ~0.07 µg/mL

B4: DFPD1-12 full-length anti-PD-1 monoclonal antibody (antibody, human IgG4 S228P, kappa, V domains shown)
VH: QVQLVESGGGVVQPGRSLRLDCKASGITFSNYGMHWVRQAPGKGLEWVAVIWYDGSKKYYADSVKGRFTISRDNSKNTLFLQMNSLRAEDTAVYYCATNNDYWGQGTLVTVSS
VL: DIQMTQSPSSLSASVGDRVTITCRASQSIHNYLDWYQQKPGKAPKLLIYNASTRATGVPSRFSGSGSGTDFTLTISSLQPEDFATYYCQQELHLPLTFGQGTKVEIKR
notes: as for B1
- EC50 (read off the curve) (PD-1 on PD1-CHO cells): ~2 nM
- EC50 (read off the curve) (PD-1-His [1]): ~0.006 µg/mL
- Kd [2]: 22.4 nM
- koff [2]: 0.000298 s⁻¹
- kon [2]: 13300 M⁻¹ s⁻¹
- IC50 (read off the curve) (PD-1-His [3]): ~0.05 µg/mL

B5: DFPD1-13 full-length anti-PD-1 monoclonal antibody (antibody, human IgG4 S228P, kappa, V domains shown)
VH: QVQLVESGGGVVQPGRSLRLDCKASGITFSNNGMHWVRQAPGKGLEWVAVIWYDSSRKYYADSVKGRFTISRDNSKNTLFLQMNSLRAEDTAVYYCATNNDYWGQGTLVTVSS
VL: DIQMTQSPSSLSASVGDRVTITCRASQSVSNYLDWYQQKPGKAPKLLIYDASTRATGVPSRFSGSGSGTDFTLTISSLQPEDFATYYCQQNMQLPLTFGQGTKVEIKR
notes: as for B1
- EC50 (read off the curve) (PD-1 on PD1-CHO cells): ~2 nM
- EC50 (read off the curve) (PD-1-His [1]): ~0.008 µg/mL
- Kd [2]: 9.5 nM
- koff [2]: 0.000108 s⁻¹
- kon [2]: 18100 M⁻¹ s⁻¹
- IC50 (read off the curve) (PD-1-His [3]): ~0.08 µg/mL
